Where “and” joins values, the source holds several entries; their conditions need not be identical. Equal entries are not always repeated.
How the values were obtained:
CD4 = target: T1, CD4 (UniProt P01730 26-390); assay: BLI (Octet)
T1 construct: also called CD4 (R&D Biotechne 514-CD)

CD28 = CD28 (Homo sapiens (Human), UniProt P10747 19-152); assay: BLI (Octet)
CTLA4 = CTLA4 (Homo sapiens (Human), UniProt P16410 36-161); assay: BLI (Octet)
[1] = target: T2, human PD-1 expressed on cells (human, UniProt Q15116 25-288); assay: cell-based or functional assay
[2] = target: human LAG-3 and human PD-1 co-expressed on the surface of cells (DiscoverX cell line) (human); assay: cell-based or functional assay
[3] = target: T2, human PD-1 expressed on cells; assay: cell-based or functional assay; remark: listed apart in the source
[4] = target: T3, human LAG-3 expressed on cells (human, UniProt P18627 23-525); assay: cell-based or functional assay
T3 sequence: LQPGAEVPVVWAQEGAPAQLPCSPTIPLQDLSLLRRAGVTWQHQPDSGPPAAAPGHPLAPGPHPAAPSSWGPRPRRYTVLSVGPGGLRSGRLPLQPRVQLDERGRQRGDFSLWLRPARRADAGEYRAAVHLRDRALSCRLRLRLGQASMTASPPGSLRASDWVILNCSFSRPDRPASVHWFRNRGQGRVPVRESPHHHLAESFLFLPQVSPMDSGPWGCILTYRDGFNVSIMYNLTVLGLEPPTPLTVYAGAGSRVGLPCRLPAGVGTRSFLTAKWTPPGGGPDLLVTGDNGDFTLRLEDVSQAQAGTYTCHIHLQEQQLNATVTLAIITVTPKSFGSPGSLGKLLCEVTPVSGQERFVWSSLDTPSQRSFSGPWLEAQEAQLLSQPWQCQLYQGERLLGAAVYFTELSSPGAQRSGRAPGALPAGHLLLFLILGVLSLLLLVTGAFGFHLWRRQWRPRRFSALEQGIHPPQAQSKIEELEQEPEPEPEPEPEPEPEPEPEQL

[5] = target: T4, recombinant human PD-1 Fc chimera (human, UniProt Q15116 25-167); assay: BLI (Octet); PD1 antigen captured on Protein G sensors
T4 construct: Bought Fc chimera; also called human PD-1 (R&D systems cat no. 1086-PD); PD1 antigen

Cynomolgus PD1 = Cynomolgus PD1 (cynomolgus, UniProt B0LAJ3 25-170); assay: as above
[6] = target: T5, recombinant human LAG-3-Fc (human, UniProt P18627 23-450); assay: BLI (Octet); LAG3 antigen amine-coupled to ARG2 sensors
T5 construct: also called human LAG-3 (R&D Systems cat no. 2319-L3); LAG3 antigen
T5 sequence: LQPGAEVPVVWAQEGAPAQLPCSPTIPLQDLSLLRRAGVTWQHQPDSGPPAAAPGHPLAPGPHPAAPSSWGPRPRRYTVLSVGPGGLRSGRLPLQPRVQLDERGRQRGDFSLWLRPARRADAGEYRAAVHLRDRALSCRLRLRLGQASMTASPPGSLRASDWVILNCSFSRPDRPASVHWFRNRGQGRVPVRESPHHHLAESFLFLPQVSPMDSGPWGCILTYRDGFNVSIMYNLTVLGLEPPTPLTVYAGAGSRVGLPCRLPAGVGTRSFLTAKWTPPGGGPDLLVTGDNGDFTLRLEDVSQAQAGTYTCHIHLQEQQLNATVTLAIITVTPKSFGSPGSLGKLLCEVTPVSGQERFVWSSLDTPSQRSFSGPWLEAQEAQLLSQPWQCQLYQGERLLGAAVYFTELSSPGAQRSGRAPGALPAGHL

[7] = target: T6, Rhesus monkey LAG-3 (used as cynomolgus LAG-3) (Rhesus monkey (called cynomolgus in the …)); assay: as above
T6 construct: extracellular domain

[8] = target: T4, recombinant human PD-1 Fc chimera; assay: switchSENSE; LAG3 and PD1 both on the surface, PD1 channel (avidity)
Method: (§1) The antigens were covalently attached to the biosensor surface using amine-coupling method, each antigen was linked to a different nanolever, with red or green fluorescent tag. Binding of a bispecific construct was measured to individual antigens alone or where both antigens were present on the surface simultaneously.

[9] = target: T5, recombinant human LAG-3-Fc; assay: switchSENSE; LAG3 and PD1 both on the surface, LAG3 channel (avidity)
Method: as §1

[10] = target: T4, recombinant human PD-1 Fc chimera; assay: switchSENSE (Dynamic Biosensors); PD1 alone on the surface, PD1 channel
Method: as §1

[11] = target: T5, recombinant human LAG-3-Fc; assay: switchSENSE (Dynamic Biosensors); LAG3 alone on the surface, LAG3 channel
Method: as §1

[12] = target: T5, recombinant human LAG-3-Fc; assay: switchSENSE; LAG3 and PD1 both on the surface, LAG3 channel (avidity); LAG3 and PD1 as ligand antigens, LAG3 detection channel
Method: as §1

Cynomolgus PD1, sequence (B0LAJ3 entry or part of it limits assumed): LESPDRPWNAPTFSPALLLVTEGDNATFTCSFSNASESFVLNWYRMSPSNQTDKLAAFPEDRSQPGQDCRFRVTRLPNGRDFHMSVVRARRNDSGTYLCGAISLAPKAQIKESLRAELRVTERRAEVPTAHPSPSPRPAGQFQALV
T4 sequence (Q15116 25-167 limits assumed, change not shown): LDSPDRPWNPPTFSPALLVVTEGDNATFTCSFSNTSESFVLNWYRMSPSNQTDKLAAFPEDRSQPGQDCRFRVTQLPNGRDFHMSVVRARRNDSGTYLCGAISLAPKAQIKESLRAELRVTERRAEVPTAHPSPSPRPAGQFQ
T2 sequence (Q15116 25-288 limits assumed): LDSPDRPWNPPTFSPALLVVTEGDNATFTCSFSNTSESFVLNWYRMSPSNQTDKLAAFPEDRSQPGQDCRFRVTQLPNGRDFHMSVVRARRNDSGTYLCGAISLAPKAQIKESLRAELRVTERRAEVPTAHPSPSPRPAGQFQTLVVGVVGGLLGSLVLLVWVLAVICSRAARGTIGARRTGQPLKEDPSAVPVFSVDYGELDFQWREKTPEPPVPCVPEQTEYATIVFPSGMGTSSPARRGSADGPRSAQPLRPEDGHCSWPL
human LAG-3 and human PD-1 co-expressed on the surface of cells (DiscoverX cell line) (human), sequence (Q15116 25-288): as the sequence (Q15116 25-288 limits assumed) above
CTLA4, sequence (P16410 36-161 limits assumed): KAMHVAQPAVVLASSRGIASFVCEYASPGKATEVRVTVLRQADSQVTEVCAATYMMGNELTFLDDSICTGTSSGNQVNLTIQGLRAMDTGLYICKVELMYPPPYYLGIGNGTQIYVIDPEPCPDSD

B1: VH1.2-6GS-VH1.2-6GS-VH2.92-His6 (bispecific antibody)
chain: EVQLVESGGGVVRPGGSLRLSCAASGFTFDDYGMSWVRQAPGKGLEWVSGIHWNGGSTGYADSVKGRFTISRDNAKNSLYLQMNSLRAEDTALYYCARIPREDCSSASCYTDAIDFWGQGTMVTVSSGGGGSGGGGSGGGGSGGGGSGGGGSGGGGSEVQLVESGGGVVRPGGSLRLSCAASGFTFDDYGMSWVRQAPGKGLEWVSGIHWNGGSTGYADSVKGRFTISRDNAKNSLYLQMNSLRAEDTALYYCARIPREDCSSASCYTDAIDFWGQGTMVTVSSGGGGSGGGGSGGGGSGGGGSGGGGSGGGGSEVQLVESGGGLVKPGGSLRLSCAASGFTFSDESMTWMRQAPGKGLEWVSYISSGGGVKFYADSVKGRFTISRDNAKNSLYLQMNSLRAEDTAVYYCAREAPLRLGESPHDAFDISGQGTMVTVSSAAAHHHHHH
notes: 259 is the same construct without the tag; also called 1.2-6GS-1.2-6GS-2.92; the bispecific
binding result (CD4): no binding | binding result (CD28): no binding | binding result (CTLA4): no binding | potency in the PD-1:PD-L1 NFAT-luciferase reporter assay, fold lower than monoclonal antibodies [1]: > 30 fold | EC50 (M) (n = 2), enzyme fragment complementation on LAG-3/PD-1 cells [2]: 5.5e-11 M and 7.6e-11 M | EC50 (M), NFAT-Luciferase Reporter Gene assay (PD-1:PD-L1) [3]: 4.6e-08 M | EC50 (M), NFAT-Luciferase Reporter Gene assay (LAG-3:MHCII) [4]: 5.9e-09 M | Kd [5]: 2.94 nM | koff [5]: 0.000665 s⁻¹ | kon [5]: 226000 M⁻¹ s⁻¹ | Kd (Cynomolgus PD1): 4.36 nM | koff (Cynomolgus PD1): 0.000685 s⁻¹ | kon (Cynomolgus PD1): 157000 M⁻¹ s⁻¹ | Kd [6]: 1.42 nM | koff [6]: 0.000206 s⁻¹ | kon [6]: 145000 M⁻¹ s⁻¹ | Kd [7]: 1.32 nM | koff [7]: 0.000184 s⁻¹ | kon [7]: 140000 M⁻¹ s⁻¹ | Kd [8]: 0.041 nM | koff [8]: 8.67e-05 s⁻¹ | kon [8]: 2.12e+06 M⁻¹ s⁻¹ | Kd [9]: 0.0207 nM | Kd [10]: 4.4 nM | koff [10]: 0.000488 s⁻¹ | kon [10]: 110000 M⁻¹ s⁻¹ | Kd [11]: 1.4 nM | koff [11]: 0.000674 s⁻¹ | kon [11]: 483000 M⁻¹ s⁻¹ | koff [12]: 7.51e-05 s⁻¹ | kon [12]: 3.62e+06 M⁻¹ s⁻¹

Source: patent US20210015937A1 (CRESCENDO BIOLOGICS, published 2021)
